Assay results as given in patent US20170008928A1, “NOVEL PEPTIDES AND PEPTIDE DERIVATIVES AND USES THEREOF” (Novo Nordisk A/S, priority 2015, published 2017).
Starred links: 1 amine or outer side, 2 acyl side, 3 side chain; linkers in the order of their positions; H or OH if unused. Non-standard residues stand in square brackets, D forms with d. No end group written: not given here. *: point of attachment. sY = N[C@@H](Cc1ccc(OS(=O)(=O)O)cc1)C(=O)O; C18 diacid = O=C(O)CCCCCCCCCCCCCCCCC(=O)*; γGlu = O=C(O)[C@H](CCC(=O)[*:2])N[*:1]; NMeF = CN[C@@H](Cc1ccccc1)C(=O)O; dNMeD = CN[C@H](CC(=O)O)C(=O)O; Nle = CCCC[C@H](N)C(=O)O; AEEA = NCCOCCOCC(=O)O

T1: human cholecystokinin-1 receptor (human, UniProt P32238 1-428)
T1 sequence (looked up): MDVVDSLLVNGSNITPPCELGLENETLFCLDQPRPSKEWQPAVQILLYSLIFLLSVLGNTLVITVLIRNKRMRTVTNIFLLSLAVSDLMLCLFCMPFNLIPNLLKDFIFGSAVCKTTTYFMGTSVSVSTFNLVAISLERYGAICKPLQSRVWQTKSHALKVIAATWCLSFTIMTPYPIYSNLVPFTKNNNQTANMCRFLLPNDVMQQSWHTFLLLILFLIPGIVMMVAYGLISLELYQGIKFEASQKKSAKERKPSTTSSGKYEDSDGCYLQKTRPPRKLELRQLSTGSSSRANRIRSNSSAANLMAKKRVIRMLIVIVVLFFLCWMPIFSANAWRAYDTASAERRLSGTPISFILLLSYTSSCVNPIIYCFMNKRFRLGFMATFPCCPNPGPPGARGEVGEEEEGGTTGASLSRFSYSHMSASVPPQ

T2: human cholecystokinin-2 receptor (human, UniProt P32239 1-447)
T2 sequence (looked up): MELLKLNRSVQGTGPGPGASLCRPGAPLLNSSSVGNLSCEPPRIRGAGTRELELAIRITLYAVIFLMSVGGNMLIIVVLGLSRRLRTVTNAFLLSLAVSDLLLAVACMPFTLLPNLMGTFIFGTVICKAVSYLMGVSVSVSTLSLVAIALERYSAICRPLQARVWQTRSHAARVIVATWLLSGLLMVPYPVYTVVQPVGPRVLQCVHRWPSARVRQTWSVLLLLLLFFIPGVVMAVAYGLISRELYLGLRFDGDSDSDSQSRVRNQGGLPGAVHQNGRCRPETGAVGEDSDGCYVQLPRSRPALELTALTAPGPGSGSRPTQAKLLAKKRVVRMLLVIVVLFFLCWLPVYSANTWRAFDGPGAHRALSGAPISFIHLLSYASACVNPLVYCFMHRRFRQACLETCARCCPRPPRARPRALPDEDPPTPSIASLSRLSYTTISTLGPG

T3: human cholecystokinin-1 receptor (human), P32238
T3 chain: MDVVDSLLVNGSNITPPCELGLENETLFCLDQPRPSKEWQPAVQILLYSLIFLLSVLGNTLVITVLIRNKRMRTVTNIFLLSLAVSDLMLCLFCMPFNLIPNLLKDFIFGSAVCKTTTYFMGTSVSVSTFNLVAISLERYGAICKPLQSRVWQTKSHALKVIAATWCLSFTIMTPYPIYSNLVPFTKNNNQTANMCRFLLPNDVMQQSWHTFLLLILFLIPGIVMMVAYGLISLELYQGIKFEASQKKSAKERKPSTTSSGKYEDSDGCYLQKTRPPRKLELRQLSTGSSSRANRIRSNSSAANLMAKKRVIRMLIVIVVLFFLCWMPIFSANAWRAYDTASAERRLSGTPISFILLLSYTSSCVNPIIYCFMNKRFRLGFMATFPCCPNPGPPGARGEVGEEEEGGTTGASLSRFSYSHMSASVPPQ

T4: human cholecystokinin-2 receptor (human), P32239
T4 chain: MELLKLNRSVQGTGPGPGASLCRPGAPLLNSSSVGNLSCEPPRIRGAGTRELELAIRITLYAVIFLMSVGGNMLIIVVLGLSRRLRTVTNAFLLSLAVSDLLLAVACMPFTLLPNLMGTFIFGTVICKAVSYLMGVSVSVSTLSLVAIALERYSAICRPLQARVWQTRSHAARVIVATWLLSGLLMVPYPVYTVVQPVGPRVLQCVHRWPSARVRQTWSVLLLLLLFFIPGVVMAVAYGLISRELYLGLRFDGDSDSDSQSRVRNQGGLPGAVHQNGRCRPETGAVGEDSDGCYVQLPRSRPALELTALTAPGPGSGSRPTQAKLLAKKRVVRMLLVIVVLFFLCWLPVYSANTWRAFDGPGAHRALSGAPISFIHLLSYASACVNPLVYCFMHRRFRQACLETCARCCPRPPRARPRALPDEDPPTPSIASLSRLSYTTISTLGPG


Legend:
[1] = molecular target: T1, human cholecystokinin-1 receptor; test: cell-based or functional assay
[2] = molecular target: T2, human cholecystokinin-2 receptor; test: cell-based or functional assay
[3] = molecular target: T1, human cholecystokinin-1 receptor; test: SPA competition vs [125I]-CCK-8s, membranes
Procedure: (§1) CCK receptor binding assays were performed in 96-well Optiplates (Cat #6005290, PerkinElmer, Waltham, Mass., USA) in a total volume of 200 μl per well.
(§2) The plates were sealed and incubated in the dark at +22° C. for 2 hours on a IKA MTS plate shaker (IKA-Werke D-79219 Staufen) set at 300 rpm and thereafter centrifuged at 1500 rpm for 10 minutes in a Heraeus Multifuge 3s centrifuge. SPA bead light emission was measured in a TopCount NXT (PerkinElmer) for 2 min/well after a delay of 60 min.

[4] = molecular target: T2, human cholecystokinin-2 receptor; test: SPA competition vs [125I]-CCK-8s, membranes
Procedure: as §1, §2

[5] = molecular target: T3, human cholecystokinin-1 receptor …; test: cell-based or functional assay
[6] = molecular target: T4, human cholecystokinin-2 receptor …; test: cell-based or functional assay
[7] = molecular target: T3, human cholecystokinin-1 receptor …; test: SPA competition vs [125I]-CCK-8s, membranes

Binder | EC50 (CCK-1R) [1] [nM] | EC50 (CCK-2R) [2] [nM] | IC50 [3] [nM] | IC50 [4] [nM] | EC50 (CCK-1R) [5] [nM] | EC50 (CCK-2R) [6] [nM] | IC50 [7] [nM]
{C18 diacid-γGlu-AEEA-AEEA}-D[sY]FGW[Nle][dNMeD][NMeF]-NH2 (SMILES CCCC[C@H](NC(=O)[C@H](Cc1c[nH]c2ccccc12)NC(=O)CNC(=O)[C@H](Cc1ccccc1)NC(=O)[C@H](Cc1ccc(OS(=O)(=O)O)cc1)NC(=O)[C@H](CC(=O)O)NC(=O)COCCOCCNC(=O)COCCOCCNC(=O)CC[C@H](NC(=O)CCCCCCCCCCCCCCCCC(=O)O)C(=O)O)C(=O)N(C)[C@H](CC(=O)O)C(=O)N(C)[C@@H](Cc1ccccc1)C(N)=O, X = Nle or Nal) | 0.41 | 390 | 0.065 | 5600 | – | – | –
D[sY]SGW[Nle][dNMeD][NMeF]-NH2 (N-terminus assumed; SMILES CCCC[C@H](NC(=O)[C@H](Cc1c[nH]c2ccccc12)NC(=O)CNC(=O)[C@H](CO)NC(=O)[C@H](Cc1ccc(OS(=O)(=O)O)cc1)NC(=O)[C@@H](N)CC(=O)O)C(=O)N(C)[C@H](CC(=O)O)C(=O)N(C)[C@@H](Cc1ccccc1)C(N)=O, X = Nle or Nal) [Asp-sTyr-Ser-Gly-Trp-Nle-DMeAsp-MePhe-amide] | 0.19 | > 1000 | 0.035 | 3600 | – | – | –
D[sY]LGWA[DMeAsp][NMeF]-NH2 [Asp-sTyr-Leu-Gly-Trp-Ala-DMeAsp-MePhe-amide] | – | – | – | – | 0.22 | > 1000 | 0.53
{C18 diacid-γGlu-AEEA-AEEA}-D[sY]LGWQ[DMeAsp][NMeF]-NH2 | – | – | – | – | 0.17 | > 1000 | 0.084
{C18 diacid-γGlu-AEEA-AEEA}-D[sY][Nle]GW[Nle][dNMeD]W-NH2 (SMILES CCCC[C@H](NC(=O)[C@H](Cc1ccc(OS(=O)(=O)O)cc1)NC(=O)[C@H](CC(=O)O)NC(=O)COCCOCCNC(=O)COCCOCCNC(=O)CC[C@H](NC(=O)CCCCCCCCCCCCCCCCC(=O)O)C(=O)O)C(=O)NCC(=O)N[C@@H](Cc1c[nH]c2ccccc12)C(=O)N[C@@H](CCCC)C(=O)N(C)[C@H](CC(=O)O)C(=O)N[C@@H](Cc1c[nH]c2ccccc12)C(N)=O, X = Nle or Nal) | 0.24 | > 1000 | 0.91 | 3000 | – | – | –
{C18 diacid-γGlu-AEEA-AEEA}-[sY][Nle]GW[Nle][dNMeD][NMeF]-NH2 (SMILES CCCC[C@H](NC(=O)[C@H](Cc1ccc(OS(=O)(=O)O)cc1)NC(=O)COCCOCCNC(=O)COCCOCCNC(=O)CC[C@H](NC(=O)CCCCCCCCCCCCCCCCC(=O)O)C(=O)O)C(=O)NCC(=O)N[C@@H](Cc1c[nH]c2ccccc12)C(=O)N[C@@H](CCCC)C(=O)N(C)[C@H](CC(=O)O)C(=O)N(C)[C@@H](Cc1ccccc1)C(N)=O, X = Nle or Nal) | 0.37 | 440 | 0.039 | 6500 | – | – | –
